Experiments:
[1] = target: BTV1 VP5 H384-6A triple mutant, S-tagged recombinant protein (Bluetongue virus serotype 1 (BTV1)); assay: SDS-PAGE without reduction and heating, Western blot
[2] = target: BTV1 VP5 H385A mutant, S-tagged recombinant protein (Bluetongue virus serotype 1 (BTV1)); assay: as above
[3] = target: BTV1 VP5, wild-type, S-tagged recombinant protein (Bluetongue virus serotype 1 (BTV1)); assay: as above
[4] = target: BTV1 VP5 anchoring domain (ANC) polypeptide, His-tagged (Bluetongue virus serotype 1 (BTV1)); assay: SDS-PAGE without reduction and heating, Coomassie staining

“BTV1 VP5 H384-6A triple mutant, S-tagged recombinant protein (natural protein)” gave a percent trimer [1] of 25% and a stoichiometry N [1] of 3.
Substance “BTV1 VP5 H385A mutant, S-tagged recombinant protein (natural protein)” has a percent trimer [2] of 25% and a stoichiometry N [2] of 3.
In the case of “BTV1 VP5, wild-type, S-tagged recombinant protein (natural protein)”, the percent trimer [3] is reported as 25% and the stoichiometry N [3] is reported as 3.
Substance “BTV1 VP5 anchoring domain (ANC) polypeptide, His-tagged (domain or fragment)” has a percent trimer [4] of 30% and a stoichiometry N [4] of 3.

From article PMC6363992
